In publication PMC6937582, “Human leukocyte antigen (HLA) class II peptide flanking residues tune the immunogenicity of a human tumor-derived epitope” (The Journal of Biological Chemistry, 2019):

Legend:
[1] = molecular target: HLA-DR1 (HLA-DRα*0101 and HLA-DRβ1*0101); test: in vitro competition assay (HLA-DR1 peptide binding); conditions: chain shown with the change
[2] = molecular target: HLA-DR1 (HLA-DRα*0101 and HLA-DRβ1*0101) (human); test: ELISA; competitive peptide-binding assay: test peptide 10^-4-10^-10 M against 4.5 nM biotinylated CLIP 99-117 marker peptide for 0.1 μg refolded HLA-DR1-CLIP 105-117; 20 mM MES, 140 mM NaCl, 0.02% NaN3, pH 5, overnight at 37 °C; HLA-DR1 captured on anti-DR L243, bound marker detected with streptavidin-HRP; % competitive inhibition, four-parameter fit

| IC50 [1] | IC50 [2] | Binder |
| --- | --- | --- |
| 725 nM | – | FARRPPLAELAAANLSGSRL [5T4_(111–130) 20-mer peptide L7A] |
| 144 nM | – | FARRPPLAELAALALSGSRL [5T4_(111–130) 20-mer peptide N8A] |

Continued, binder first:

| Binder | IC50 [1] | IC50 [2] |
| --- | --- | --- |
| FARRPPLAELAALNLSRSRL [5T4_(111–130) 20-mer peptide G11R] | 255 nM | – |
| FARRPPLAELAALNLSGSRL [5T4_(111–130) 20-mer peptide] | – | 176 nM |
